This passage reports Immunoreactivity (%), LD50, immunotoxin cytotoxicity (Mab-Zap saporin) on C4-2 cells and LD50, immunotoxin cytotoxicity (Mab-Zap saporin) on PSMA-3T3 cells results from US20040033229A1.

“And” between values parts separate entries of the source, which are not always exact repeats. Equal entries are not always repeated.

Assay [1] concerns the target prostate specific membrane antigen (PSMA), full-length, on the cell surface (human) (UniProt Q04609). The assay is described as follows: fraction of radiolabel bound to cells, average.
The target is the same in assay [2]. The assay is described as follows: fraction of radiolabel bound to cells, PSMA-3T3.
Assay [3] shares this target. The assay is described as follows: cell-based or functional assay.

prostate specific membrane antigen (PSMA), full-length, on the cell surface (human), sequence (Q04609 whole entry): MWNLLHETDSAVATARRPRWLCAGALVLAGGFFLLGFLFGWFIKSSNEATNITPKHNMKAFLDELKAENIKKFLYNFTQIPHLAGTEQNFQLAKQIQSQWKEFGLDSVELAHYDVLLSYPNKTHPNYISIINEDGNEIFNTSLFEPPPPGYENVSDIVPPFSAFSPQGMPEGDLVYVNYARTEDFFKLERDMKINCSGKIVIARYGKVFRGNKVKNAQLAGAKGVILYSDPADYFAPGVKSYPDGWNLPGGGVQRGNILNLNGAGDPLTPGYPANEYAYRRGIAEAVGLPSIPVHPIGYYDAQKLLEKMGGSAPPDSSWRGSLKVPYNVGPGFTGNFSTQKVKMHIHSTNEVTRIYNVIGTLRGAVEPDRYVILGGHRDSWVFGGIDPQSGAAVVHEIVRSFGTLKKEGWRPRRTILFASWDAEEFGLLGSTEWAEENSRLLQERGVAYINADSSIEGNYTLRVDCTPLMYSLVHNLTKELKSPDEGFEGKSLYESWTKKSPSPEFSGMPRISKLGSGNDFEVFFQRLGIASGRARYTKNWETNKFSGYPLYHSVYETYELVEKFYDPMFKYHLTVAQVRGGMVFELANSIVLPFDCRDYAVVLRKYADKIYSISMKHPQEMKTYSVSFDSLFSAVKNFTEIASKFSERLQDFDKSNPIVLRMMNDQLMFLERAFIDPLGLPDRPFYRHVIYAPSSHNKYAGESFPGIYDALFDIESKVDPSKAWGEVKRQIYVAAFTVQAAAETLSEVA

For the substance 111In radiolabeled mJ591 (antibody), the Immunoreactivity (%) was 56.7% in assay [1]; 58.5% and 54.9% in assay [2].

In assay [3], mAb J591 (antibody) yielded an LD50, immunotoxin cytotoxicity (Mab-Zap saporin) on C4-2 cells of 88.2 pM and an LD50, immunotoxin cytotoxicity (Mab-Zap saporin) on PSMA-3T3 cells of 89 pM.
